Measurements taken from patent US20080167229.
Numbering of substitutions follows the chain as printed. Where two headings read alike, the source gives them in different places.

B1: N-terminal cleavage product of c-Myc-tagged USP1 (rabbit reticulocyte lysate) (protein)
chain: MPGVIPSESNGLSRGSPSKKNRLSLKFFQKKETKRALDFTDSQENEEKASEYRASEIDQVVPAAQSSPINCEKRENLLPFVGLNNLGNTCYLNSILQVLYFCPGFKSGVKHLFNIISRKKEALKDEANQKDKGNCKEDSLASYELICSLQSLIISVEQLQASFLLNPEKYTDELATQPRRLLNTLRELNPMYEGYLQHDAQEVLQCILGNIQETCQLLKKEEVKNVAELPTKVEEIPHPKEEMNGINSIEMDSMRHSEDFKEKLPKGNGKRKSDTEFGNMKKKVKLSKEHQSLEENQRQTRSKRKATSDTLESPPKIIPKYISENESPRPSQKKSRVKINWLKSATKQPSILSKFCSLGKITTNQGVKGQSKENECDPEEDLGKCESDNTTNGCGLESPGNTVTPVNVNEVKPINKGEEQIGFELVEKLFQGQLVLRTRCLECESLTERREDFQDISVPVQEDELSKVEESSEISPEPKTEMKTLRWAISQFASVERIVGEDKYFCENCHHYTEAERSLLFDKMPEVITIHLKCFAASGLEFDCYGGGLSKINTPLLTPLKLSLEEWSTKPTNDSYGLFAVVMHSGITISSGHYTASVKVTDLNSLELDKGNFVVDQMCEIGKPEPLNEEEARGVVENYNDEEVSIRVGGNTQPSKVLNKKNVEAIGLLGG
B2: c-Myc-tagged USP1 synthesized in rabbit reticulocyte lysate (protein)
chain: MPGVIPSESNGLSRGSPSKKNRLSLKFFQKKETKRALDFTDSQENEEKASEYRASEIDQVVPAAQSSPINCEKRENLLPFVGLNNLGNTCYLNSILQVLYFCPGFKSGVKHLFNIISRKKEALKDEANQKDKGNCKEDSLASYELICSLQSLIISVEQLQASFLLNPEKYTDELATQPRRLLNTLRELNPMYEGYLQHDAQEVLQCILGNIQETCQLLKKEEVKNVAELPTKVEEIPHPKEEMNGINSIEMDSMRHSEDFKEKLPKGNGKRKSDTEFGNMKKKVKLSKEHQSLEENQRQTRSKRKATSDTLESPPKIIPKYISENESPRPSQKKSRVKINWLKSATKQPSILSKFCSLGKITTNQGVKGQSKENECDPEEDLGKCESDNTTNGCGLESPGNTVTPVNVNEVKPINKGEEQIGFELVEKLFQGQLVLRTRCLECESLTERREDFQDISVPVQEDELSKVEESSEISPEPKTEMKTLRWAISQFASVERIVGEDKYFCENCHHYTEAERSLLFDKMPEVITIHLKCFAASGLEFDCYGGGLSKINTPLLTPLKLSLEEWSTKPTNDSYGLFAVVMHSGITISSGHYTASVKVTDLNSLELDKGNFVVDQMCEIGKPEPLNEEEARGVVENYNDEEVSIRVGGNTQPSKVLNKKNVEAIGLLGGQKSKADYELYNKASNPDKVASTAFAENRNSETSDTTGTHESDRNKESSDQTGINISGFENKISYVVQSLKEYEGKWLLFDDSEVKVTEEKDFLNSLSPSTSPTSTPYLLFYKKL
B3: USP1 with N-terminal His tag, amino acids 670-71 changed from GG to AA (non-cleavable), purified from Sf9 cells (protein)
chain: B2 chain with G670A, G671A
B4: USP1/UAF1 complex (heterodimer) co-expressed in and purified from Sf9 cells, Example 1 (protein)
chain 1: B2 chain with G670A, G671A
chain 2: not shown
B5: native USP1 complex purified from HeLa nuclear extract (protein)
chain 1: B2 chain
chain 2: not shown

Tests used:
[1] = biological target: Flag-HA-tagged UAF1, expressed in and purified from HeLa cells
[2] = biological target: Ubiquitin-Vinyl Sulfone (U-202; Boston Biochem)
[3] = biological target: Strep-tagged UAF1-ΔWD2 purified from Sf9 insect cells
[4] = biological target: UAF1 with engineered C-terminal Strep II tag, purified from Sf9 cells
[5] = biological target: T1, Ubiquitin-7-amido-4-methylcoumarin (U-550; Boston Biochem)
[6] = biological target: monoubiquitinated Flag-HA-tagged FANCD2 protein purified from hydroxyurea-treated HeLa cells, Q9BXW9
[7] = biological target: T1, Ubiquitin-7-amido-4-methylcoumarin …; assay: Ub-AMC hydrolysis at 20 nM USP1, Lineweaver-Burk plot; standard deviation in brackets
[8] = biological target: T1, Ubiquitin-7-amido-4-methylcoumarin …; assay: Ub-AMC hydrolysis at 2 nM USP1/UAF1 complex, Lineweaver-Burk plot; standard deviation in brackets

Row | Protein | mobility shift in SDS-PAGE with Ub-VS [2] | Km [5] | Ub-AMC cleavage, fluorescence against time, 10 nM protein [5] | kcat [5] [s⁻¹] | in vitro deubiquitination of Ub-FANCD2 [6] | further results
1 | B1 | there was a shift of both the full length USP1 and the N-terminal cleavage product in the presence of Ub-VS | – | – | – | – | amount of the N-terminal cleavage product of c-Myc-USP1 after cycloheximide in reticulocyte lysate (anti-c-Myc immunoblot) [1]: the e-USP1-N-Term. band (about 97 kDa) stays faint from 0 min to 2h in Control and grows stronger from 0 min to 2h with + UAF1
2 | B2 | there was a shift of both the full length USP1 and the N-terminal cleavage product in the presence of Ub-VS | – | – | – | – | –
3 | B3 | – | decreasing the Km from 1.4 µM to 0.7 µM | rises slowly and almost linearly from about 130 at 0 min to about 400 at 40 min | 0.014 | USP1 protein alone was unable to deubiquitinate Ub-FANCD2 | Ub-AMC cleavage by 10 nM USP1, fluorescence against time, 10 nM UAF1-ΔWD2 added during the run [3]: no stimulation: the two dark traces (USP1 and USP1 + UAF1-ΔWD2) lie on one another, step to about 240 at about 12 min and keep their slope, reaching about 300 at about 23 min; Ub-AMC cleavage by 2 nM USP1, fluorescence against time, 2 nM UAF1 or buffer added during the run [4]: both traces run together from about 130 to about 165 until about 12 min; then + UAF1 steps to about 245 and rises at once in a straight line beyond 500 at about 23 min, while Control steps to about 185 and reaches only about 215 at 25 min; Ub-AMC cleavage by 10 nM USP1, fluorescence against time, 10 nM UAF1 added during the run [4]: the grey trace USP1 + UAF1 runs with the USP1 traces from about 120 to about 200 until about 12 min, then steps to about 310 and rises in a straight line to about 1200 at about 23 min; kcat on Ub-AMC, UAF1/USP1 complex against USP1 alone [4]: augmenting the kcat value 18-fold; kcat/Km on Ub-AMC, UAF1/USP1 complex against USP1 alone [4]: the kcat/Km is 35-fold higher for the UAF1/USP1 complex compared to USP1 alone; substrate turnover of Ubiquitin-AMC after adding UAF1 in an equimolar amount to USP1 [4]: Addition of UAF1 resulted in an instantaneous and robust increase of substrate turnover; Ub-AMC cleavage, fluorescence against time, 10 nM USP1 alone [5]: slow rise from about 120 at 0 min to about 300 at about 23 min, on one line with USP1 + UAF1-ΔWD2; rate of Ub-AMC conversion V (nM/s) against [S] (µM), 20 nM USP1 [5]: V rises from about 0.09 nM/s at 0.6 µM to about 0.2 nM/s at 3 µM; the fitted curve still rises, no plateau; Km [7]: 1.4 µM
4 | B4 | – | decreasing the Km from 1.4 µM to 0.7 µM | rises steeply from about 350 at 0 min to a plateau of about 2000 reached at about 15 min | 0.26 | the UAF11USP1 complex readily deubiquitinated the substrate; about half of the substrate was deubiquitinated | rate of Ub-AMC conversion V (nM/s) against [S] (µM), 2 nM USP1/UAF1 complex [5]: V rises from about 0.19 nM/s at about 0.4 µM to about 0.43 nM/s at 3 µM; the fitted curve flattens but still rises, no plateau; Km [8]: 0.7 µM
5 | B5 | a mobility shift of both full length and the N-terminal cleavage product of USP1 was observed, demonstrating enzymatic activity of both polypeptides | – | – | – | the USP1 complex could support this reaction | –
